# From the RNAGym collection of RNA variant scans (doi:10.1073/pnas.2313332121)
# This sample holds only a part of the variants without activity.
# B1: TPR 5TU (parent)
# chain: GGAUCUUCUCGAUCUAACAAAAAAGACAAAUCUGCCACAAAGCUUGAGAGCAUCUUCGGAUGCAGAGGCGGCAGCCUUCGGUGGCGCGAUAGCGCCAACGUUCUCAACUAUGACACGCAAAACGCGUGCUCCGUUGAAUGGAGUUUAUCAUG
# Variants of: B1
# Assay: polymerase ribozyme fitness, log enrichment relative to wild type (log ratio); higher = more active; in vitro selection for triplet polymerase activity
# How it was run: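 In triplicate, a single round of in vitro selection was run on each mutant library, PCR-built and transcribed, covering one subunit of a heterodimeric triplet polymerase ribozyme. Frozen incubation at −7 °C followed annealing with a biotinylated primer, partner subunit and triplets, and extended constructs were then gel-excised, streptavidin-captured and taken through RT-PCR. Fitness is the logarithm of genotype enrichment over wild-type enrichment, from inverse-variance-weighted replicate averages of Illumina-sequenced inputs and outputs. […] only genotypes with ≥10 input reads and ≥1 read per output were kept.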
row,Variant,polymerase ribozyme fitness (log ratio)
1,U45G A47U U56A G67C A89U C96A A97G A138C,≤ -4.2
2,G46U C87U,-0.944
3,U45C G50U C57G C87G A137C C149A,≤ -4.2
4,G48A G70A U78G G84U G143U,≤ -4.2
5,A47G G83C C87G G112U A120C C125A G136U,≤ -4.2
6,U44A A47C C57U G128C,≤ -4.2
7,A47G G50C U53A A97U G124C,≤ -4.2
8,A47C C96U,0.15
9,U45A C72G C79U G83U U104G,≤ -4.2
10,U45A G84A U148A,≤ -4.2
11,A47G U102A,-0.825
12,A47C A60C C72G U77G C87G G88U A110U A119G A147C,≤ -4.2
13,U45A C118U A120C,-2.58
14,A47U U56A C85A U104A,-2.77
15,G46U C63G G94U U101G A137G A147C,≤ -4.2
16,A47C U148G,-3.89
17,A47C U148A,-3.16
18,A47C G59A C85G,-2.62
19,A47U G50A C87G C105G C114U C129U,≤ -4.2
20,G46A C51A A98G C125U,≤ -4.2
21,G46C A98U,-1.22
22,G46C G80C A97C U144G,≤ -4.2
23,U45A A49G C57A U61G G68U C114U A150U,≤ -4.2
24,A47G U53A C75G U90C,≤ -4.2

row,Variant,polymerase ribozyme fitness (log ratio)
1,G48A U53A C85U C118U,-2.36
2,G48A G50A G58C C87G,≤ -4.2
3,U45G G59A G84A A89G C118U,-3.18
4,A47C G48U G50A U55A G94A,≤ -4.2
5,G46U C96U A142G,-1.19
6,A47C G83A A122C,-1.08
7,G46A G70U C85G U130A,≤ -4.2
8,A47G G50U C85G,-3.89
9,U44G G48A G83C,≤ -4.2
10,A47C C85U G117U,0.38
11,G46C U55A,-0.931
12,U44A G50A G65C C76G U90G,≤ -4.2
13,G48A C51A U56A G62C,-3.16
14,A47C C85G C96A A98G,≤ -4.2
15,U45A G50C C54G G67A C87A A91U A115C,≤ -4.2
16,U45G G50C C57A G59A C75U G94C A106U A107U,≤ -4.2
17,A47C C72U G94U U102C,≤ -4.2
18,C43U G80U C93G C99G,≤ -4.2
19,G46A C57U G58C C76A C96A U101C A106U,≤ -4.2
20,A47C U55G U56C C85U G133C G140C,≤ -4.2
21,G46A C54A C57G G74U C87A A121G,≤ -4.2
22,A47C U53C C95A U104G A119U G136U,-3.11
23,U45G G46A A64U G71U G81A A89G A142G,≤ -4.2
24,U44G C57U A91U U109C,≤ -4.2

row,Variant,polymerase ribozyme fitness (log ratio)
1,A47U U55C G58C,-0.823
2,A47U G50A C129U,-3.09
3,A47U A52G U53G U56A U145G,-3.64
4,A47C U56A U144C U151G,≤ -4.2
5,G48A C54U G86C A106C,≤ -4.2
6,A47U U55A C95A A122G,-0.42
7,U45A C79U C103A C118U,≤ -4.2
8,U45A C76A C85A,≤ -4.2
9,A47G C85U A138G,-4.18
10,A47U U148C,-2.46
11,U44A C93G A113G U134A,≤ -4.2
12,U44A U45A A47C G86A U130G,≤ -4.2
13,C43U U53A,≤ -4.2
14,A47C U56C C93U A106C,-4.09
15,C43U G71A U82A C95A A97U C103A G126A C149U,≤ -4.2
16,G46A G62U,-4.09
17,A47G G94C,-0.418
18,U45A G83A A121U G141C U148G,≤ -4.2
19,G48A C54G C57U G81A C95U A115U C131A U146G G152U,≤ -4.2
20,U44C C51U G92U C96G U102G G128C,≤ -4.2
21,U44A A107U,-0.956
22,A47U U53A G133C,-2.66
23,A47U G59A G124U,-0.07
24,U45G C93U G141C,≤ -4.2

row,Variant,polymerase ribozyme fitness (log ratio)
1,U45A G68C U82G G83C G94A C118U,≤ -4.2
2,A47C C87A C99U G136U G141C,≤ -4.2
3,G46A U53G C57U G86A A115C,≤ -4.2
4,U45A A60C C79U C99U U101G G136U,≤ -4.2
5,G46U U55G C76A A89G A106U,≤ -4.2
6,U44A C72A C87U C99G U135A,≤ -4.2
7,A47C C99U A122U G141A,-3.39
8,A47U U61G U134A,-3.8
9,U44A A66U C85A,≤ -4.2
10,A47G A91G,-2.73
11,A47C U56A C85U,-0.721
12,U44G U45A A47C C54A C57U U61A C93U,≤ -4.2
13,A47C G50A G92U,-1.37
14,G46U G83C G92U,-2.34
15,G48A G117U,-0.676
16,G46C G50U G84U A121C G124U,-3.31
17,G48A A113C U134C A137C G140A U148G,≤ -4.2
18,G48A A52C C105U C108U A137C,≤ -4.2
19,G46C G59A A66G G83A A120U C123G,≤ -4.2
20,U45A U53C C57U C85A C96A C123U C125A A142C,≤ -4.2
21,U44A A47C A52G C79U C85U C118U,≤ -4.2
22,G46A U144G,0.469
23,G46A G86A C87G U104G C116U C149U,≤ -4.2
24,U44A C57A C93A G133C,≤ -4.2

row,Variant,polymerase ribozyme fitness (log ratio)
1,G48A C75G U78C,≤ -4.2
2,G46C U55A A89U C93G A106C U127C G140C,≤ -4.2
3,G46U A138C,-3.8
4,A47U A60U C95U G136A,-1.58
5,A47U G58U G84A C93G U148A,≤ -4.2
6,G46C C75U C93G U144A,≤ -4.2
7,U45A G86A,-3.54
8,A47C U55A,0.201
9,G48A C85U C96A C116G,-2.37
10,U44A C54U,-3.59
11,G46A G50C C79A G84U C95U A115C,≤ -4.2
12,A47C U56G C85G C118U A121U U144G,-1.81
13,U45C A49C G70C G83C A137C U144C C149U,≤ -4.2
14,A47C A110U,≤ -4.2
15,G48A G62A G68C C105U G126A G136C G141U U145G,≤ -4.2
16,U44A G65C A89U,≤ -4.2
17,A47C U104G,-0.804
18,A47G U55A A89C C95U U146A,-1.95
19,A47U U61A C118U,-2.01
20,U45A U56C C57A C63G C87G G88C,≤ -4.2
21,C43U G50A G80C C95A A121U A150C,≤ -4.2
22,G46A G92A,-2.92
23,A47C C79U G83A C87U C99A C103U,-4.14
24,G46A C54G,-1.88

row,Variant,polymerase ribozyme fitness (log ratio)
1,G46A G67A C87A A97C G143C,≤ -4.2
2,U44A C95A,-4.11
3,U44A C95U,-3.87
4,A47C C96U C103A C114G C123U,≤ -4.2
5,U44A G94A C116U G152U,-4.16
6,A47U G94A,-0.308
7,U45A C96G A121U,-2.93
8,G46A A47G C72A C108U U144A,≤ -4.2
9,A47G C51U C75U C96A C103U A138G A147C,≤ -4.2
10,U44A U53G,≤ -4.2
11,A47C G58U C99A,-2.46
12,U44A C57G G70C C96U A107U C149G A150C,≤ -4.2
13,G46C C118G,-1.24
14,C43U G80A A115G,≤ -4.2
15,U45G U61A,-2.35
16,A47U C93A,-2.17
17,U45A A66U C76U C85G C129A,≤ -4.2
18,C43U U45G G46C A49U U82A A89U C108G,≤ -4.2
19,G46C A47C G48A U82C,≤ -4.2
20,U45C C108G,≤ -4.2
21,G48A A52G,0.139
22,U44A G70C G117A G136U,≤ -4.2
23,G46A A49G G50A A52U C96U C123G U139A G143C,≤ -4.2
24,A47G C87G C103U A110G,≤ -4.2

row,Variant,polymerase ribozyme fitness (log ratio)
1,G46A C125A U134C,-0.78
2,A47C G50A G83A,-2.44
3,A47U G48U U55A U82G U134C,-3.1
4,G46U G68C U78A C93G C99U G100C C118A A119U U144G G152A,≤ -4.2
5,G48A A97G,-0.198
6,U44G G92C,≤ -4.2
7,A47C A73U G83C C118A,≤ -4.2
8,A47C U104G G124U,-0.000534
9,C43U U45A G86A A115C C118G,≤ -4.2
10,U45A A66G G80A A142G,≤ -4.2
11,U44A A137U,-3.68
12,A47U G83C A98U,-0.618
13,G46C C54U,-0.821
14,A47U C93U C96U G152A,-3.95
15,G46C G48A C76G U78G G83A G143C,-4.2
16,U44A C93U A120G,-4.11
17,A47G U55A G71U C85G C95U,≤ -4.2
18,G46U U55A G84U G126C,-1.83
19,G46C,-0.9
20,G46U,-0.0995
21,G46A,-0.076
22,A47G G58C C93A U101G,-3.96
23,A47C G81C C87G C96U,≤ -4.2
